Measurements as given in patent US20250320304A1 (Janssen / Centocor, published 2025).

T1: biotinylated-BCMA protein (UniProt Q02223 1-54, limits assumed, biotinylated (site not stated))
T1 construct: also called recombinant BCMA antigen; recombinant biotinylated BCMA
T1 sequence (looked up): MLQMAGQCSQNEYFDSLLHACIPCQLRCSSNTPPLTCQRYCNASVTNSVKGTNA

B1: TD01B46 (bispecific antibody, human IgG1, kappa, L234A L235A)
light: DIVMTQSQKFMSTTVGDRVSITCKASQNVGTAVAWYQQKPGQSPKLLIYSASNRYTGVPDRFTGTGSGTDFTLTIINVQSEDLADYFCQQYGSSPWTFGGGTKLEIKRTVAAPSVFIFPPSDEQLKSGTASVVCLLNNFYPREAKVQWKVDNALQSGNSQESVTEQDSKDSTYSLSSTLTLSKADYEKHKVYACEVTHQGLSSPVTKSFNRGEC
heavy: QVQLQQSGAELVKPGASVKLSCKASGYTFTNNVMHWVRQKPGQGLEWIGYILPYNDGTKYNEKFKGKATLTSDKSSSTAYMELSSLTSEDSAVYYCARYDYDGYFDYWGQGTTLTVSSASTKGPSVFPLAPSSKSTSGGTAALGCLVKDYFPEPVTVSWNSGALTSGVHTFPAVLQSSGLYSLSSVVTVPSSSLGTQTYICNVNHKPSNTKVDKKVEPKSCDKTHTCPPCPAPEAAGGPSVFLFPPKPKDTLMISRTPEVTCVVVSVSHEDPEVKFNWYVDGVEVHNAKTKPREEQYNSTYRVVSVLTVLHQDWLNGKEYKCKVSNKALPAPIEKTISKAKGQPREPQVYTLPPSREEMTKNQVSLSCAVKGFYPSDIAVEWESNGQPENNYKTTPPVLDSDGSFFLVSKLTVDKSRWQQGNVFSCSVMHEALHNRFTQKSLSLSPGK
chain: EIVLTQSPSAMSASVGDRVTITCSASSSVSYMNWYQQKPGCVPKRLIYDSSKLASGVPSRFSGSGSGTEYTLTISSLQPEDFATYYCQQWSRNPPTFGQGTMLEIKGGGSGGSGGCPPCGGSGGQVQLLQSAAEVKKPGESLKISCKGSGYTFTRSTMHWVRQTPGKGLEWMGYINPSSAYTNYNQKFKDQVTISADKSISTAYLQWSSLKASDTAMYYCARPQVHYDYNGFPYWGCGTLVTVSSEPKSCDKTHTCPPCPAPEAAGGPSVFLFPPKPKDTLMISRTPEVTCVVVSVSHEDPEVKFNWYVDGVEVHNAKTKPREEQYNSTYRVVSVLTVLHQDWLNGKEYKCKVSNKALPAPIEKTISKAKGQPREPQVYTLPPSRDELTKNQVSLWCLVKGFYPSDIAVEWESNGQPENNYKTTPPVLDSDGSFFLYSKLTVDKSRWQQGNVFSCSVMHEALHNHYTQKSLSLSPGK
notes: Stapled bispecific from the large-scale batch; also called BCMB749 × Cris7b spFv
B2: TD01B48 (bispecific antibody)
light: B1 light
heavy: B1 heavy
scFv-Fc: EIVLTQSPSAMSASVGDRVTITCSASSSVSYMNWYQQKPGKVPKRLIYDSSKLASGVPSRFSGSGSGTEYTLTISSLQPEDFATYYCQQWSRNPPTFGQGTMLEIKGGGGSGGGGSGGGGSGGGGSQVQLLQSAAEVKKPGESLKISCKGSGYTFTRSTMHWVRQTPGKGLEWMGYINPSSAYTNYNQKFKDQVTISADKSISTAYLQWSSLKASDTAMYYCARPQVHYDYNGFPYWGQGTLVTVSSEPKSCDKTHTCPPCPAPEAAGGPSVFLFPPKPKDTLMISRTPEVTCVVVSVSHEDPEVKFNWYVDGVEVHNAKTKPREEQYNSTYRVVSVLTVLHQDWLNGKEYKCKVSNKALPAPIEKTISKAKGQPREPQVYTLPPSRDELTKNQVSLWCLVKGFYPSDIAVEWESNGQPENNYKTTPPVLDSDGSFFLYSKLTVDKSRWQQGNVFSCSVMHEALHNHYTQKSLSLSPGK
notes: also called BCMB749 × Cris7b scFv G4S; Cris7 scFv B48 G4S
B3: TD01B49 (bispecific antibody, human IgG1, kappa, L234A L235A)
light: B1 light
heavy: B1 heavy
chain: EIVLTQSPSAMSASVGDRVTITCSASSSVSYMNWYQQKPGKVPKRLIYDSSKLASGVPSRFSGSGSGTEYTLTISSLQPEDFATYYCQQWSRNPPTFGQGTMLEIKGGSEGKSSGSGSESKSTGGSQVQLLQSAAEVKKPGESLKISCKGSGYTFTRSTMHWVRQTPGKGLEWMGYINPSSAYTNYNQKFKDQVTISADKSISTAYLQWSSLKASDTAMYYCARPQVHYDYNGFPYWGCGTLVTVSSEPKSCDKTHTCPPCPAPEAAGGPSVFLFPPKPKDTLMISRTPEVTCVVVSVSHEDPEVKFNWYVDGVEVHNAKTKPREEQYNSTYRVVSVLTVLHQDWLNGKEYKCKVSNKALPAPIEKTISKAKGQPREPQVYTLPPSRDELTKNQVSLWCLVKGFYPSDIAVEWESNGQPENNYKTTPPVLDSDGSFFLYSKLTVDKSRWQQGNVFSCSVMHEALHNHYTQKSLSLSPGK
notes: also called BCMB749 × Cris7b scFv Bird

How the values were obtained:
[1] = biological target: T2, Human CD3E-CD3D Heterodimer Protein (Acro Biosystems) (human, UniProt P07766 23-126; P04234 22-105); experiment: BLI (Octet), bispecific on anti-human Fc sensor, CD3 in solution, 2:1 heterogeneous ligand model, kdis
T2 construct: also called recombinant CD3 antigen (human CD3 epsilon and CD3 delta heterodimer protein, Acro Biosystems); Recombinant CD3E/D heterodimer protein
T2 sequence (P07766 23-126 limits assumed, chain 1 of 2): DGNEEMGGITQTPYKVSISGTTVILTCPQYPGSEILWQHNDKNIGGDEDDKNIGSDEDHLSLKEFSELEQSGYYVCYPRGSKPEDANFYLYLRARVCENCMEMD
T2 sequence (P04234 22-105 limits assumed, chain 2 of 2): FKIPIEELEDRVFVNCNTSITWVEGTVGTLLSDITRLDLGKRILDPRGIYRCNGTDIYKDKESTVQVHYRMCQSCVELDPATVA
Procedure: (§1) To evaluate CD3 binding, anti-human IgG Fc (AHC) capture biosensors (Sartorius) were loaded with 3 ug/mL bispecific sample of interest in PBS. After loading sensor tips were washed in 1×DPBS+0.02% Tween 20+1 mg/mL Bovine Serum Albumin (BSA) for blocking. […] Association was monitored for 1800 s and dissociation for 900 s, respectively. All measurements were performed at 30° C. with agitation at 1,200 rpm. Sensorgrams were referenced for buffer effects and then analyzed using the FORTEBIO Data Analysis HT Software (V. 12.0.1.55). Kinetic responses were baseline subtracted, aligned and globally fit using a 1:1 fitting model or 2:1 heterogeneous ligand binding model to obtain values for association (Kon), dissociation (Koff) rate constants and the equilibrium dissociation constants (KD).
(§2) Recombinant CD3E/D heterodimer protein was used to assess binding of the scFv/spFv anti-CD3 arms.

[2] = biological target: T1, biotinylated-BCMA protein; experiment: BLI (Octet), biotinylated BCMA on streptavidin sensor, bispecific in solution, 1:1 model
Procedure: Binding of the Cris7b scFv and stapled spFv bispecific molecules to recombinant CD3 antigen (human CD3 epsilon and CD3 delta heterodimer protein, Acro Biosystems) and recombinant BCMA antigen were measured by biolayer interferometry (BLI) using an OCTET HTX instrument (Sartorius, formerly ForteBio). To evaluate BCMA binding, Streptavidin (SA) capture sensors (Sartorius) were loaded with biotinylated-BCMA protein to ˜1 nm signal in PBS. […] Association and dissociation times were 900 s, respectively. […] All measurements were performed at 30° C. with agitation at 1,200 rpm. Sensorgrams were referenced for buffer effects and then analyzed using the ForteBio Data Analysis HT Software (V. 12.0.1.55). Kinetic responses were baseline subtracted, aligned and globally fit using a 1:1 fitting model or 2:1 heterogeneous ligand binding model to obtain values for association (Kon), dissociation (Koff) rate constants and the equilibrium dissociation constants (KD).

[3] = biological target: T2, Human CD3E-CD3D Heterodimer Protein …; experiment: BLI (Octet), bispecific on anti-human Fc sensor, CD3 in solution, 2:1 heterogeneous ligand model, KD1
Procedure: as §1, §2

[4] = biological target: T2, Human CD3E-CD3D Heterodimer Protein …; experiment: BLI (Octet), bispecific on anti-human Fc sensor, CD3 in solution, 2:1 heterogeneous ligand model, kdis2
Procedure: as §1, §2

[5] = biological target: T2, Human CD3E-CD3D Heterodimer Protein …; experiment: BLI (Octet), bispecific on anti-human Fc sensor, CD3 in solution, 2:1 heterogeneous ligand model, KD2
Procedure: as §1, §2

[6] = biological target: T2, Human CD3E-CD3D Heterodimer Protein …; experiment: BLI (Octet), bispecific on anti-human Fc sensor, CD3 in solution, 2:1 heterogeneous ligand model, ka
Procedure: as §1, §2

[7] = biological target: T1, biotinylated-BCMA protein; experiment: ELISA, chemiluminescence: biotinylated recombinant BCMA on streptavidin plates, detection with goat anti-human IgG F(ab')2 HRP
Procedure: Bispecific antibodies were analyzed for binding to either recombinant biotinylated BCMA or recombinant biotinylated CD3 antigen (human CD3 epsilon and CD3 delta heterodimer protein, Acro Biosystems). ELISAs were carried out according to standard protocols and plates were washed three time with TBS containing 0.05% Tween 20 (TBS-T) between each incubation step. Ninety-six-well MAXISORP plates (Nunc) were coated with 1 ug/mL of Streptavidin, diluted in 1×dPBS for 18 hours at 4° C. All plates were coated with 20 nM of antigen of interest for 1 hour at room temperature and then blocked with 3% BSA in PBS-T (1×dPBs with 0.05% tween 20) for 1 hour at room temperature. After blocking, plates were incubated with serial dilution of purified bispecific samples in PBS-T for 1 h at RT, and were then incubated with goat anti-human IgG F(ab′2)2 HRP (Jackson ImmunoResearch) for 1 hour at room temperature. After washing, BM Chemilluminesence ELISA Substrate (POD) was added (Millipore) and plates were immediately read on an ENVISION plate reader (Perkin Elmer) using ultrasensitive illuminesence. […] PRISM, where curves were generated and analyzed with a nonlinear regression curve fit.

[8] = biological target: T2, Human CD3E-CD3D Heterodimer Protein …; experiment: BLI (Octet), bispecific on anti-human Fc sensor, CD3 in solution, 2:1 heterogeneous ligand model, ka2
Procedure: as §1, §2

Binder	koff [1]	Kd [2]	koff [2]	kon [2]	Kd [3]	koff [4]	Kd [5]	kon [6]	EC50 (read off the curve) [7]	kon [8]
B1	3.49e-06 s⁻¹	5.43 nM	0.00142 s⁻¹	261000 M⁻¹ s⁻¹	0.0222 nM	4.65e-05 s⁻¹	2.99 nM	158000 M⁻¹ s⁻¹	~2 nM	15600 M⁻¹ s⁻¹
B2	3.49e-05 s⁻¹	–	–	–	0.238 nM	7.45e-05 s⁻¹	4.62 nM	147000 M⁻¹ s⁻¹	~2 nM	16100 M⁻¹ s⁻¹
B3	2.04e-05 s⁻¹	4.02 nM	0.00145 s⁻¹	362000 M⁻¹ s⁻¹	0.127 nM	5.61e-05 s⁻¹	3.42 nM	160000 M⁻¹ s⁻¹	~2 nM	16400 M⁻¹ s⁻¹
